# Where two headings read alike, the source gives them in different places.
# Columns and labels:
# VEGFR-2 [1] = biological target: T1, VEGFR-2 (Homo sapiens, UniProt P35968); test: Biosensor analysis (surface plasmon resonance) of VEGF-D ligands on VEGFR-2; format: binding; details: 1:1 Langmurian model
# Method: (§1) To determine the relative affinities of the ligands VEGF-DSSTS.IISS, VEGF-D-FULL-N-FLAG and mature VEGF-D (designated VEGF-DΔNΔC) for VEGFR-2 and VEGFR-3, the relative binding kinetics for these interactions was analyzed by biosensor analysis using surface plasmon resonance detection (Nice et al., Bioessays, 21:339-352, 1999). The preparations of VEGF-DSSTS.IISS and VEGF-DΔNΔC used for this analysis each consisted of one VEGF-D species devoid of other forms of VEGF-D but the preparation of VEGF-D-FULL-N-FLAG did contain traces of partially processed as well as full-length material, reflecting the capacity of wild-type full-length VEGF-D to be proteolytically processed in the 293EBNA cell cultures) from which these proteins were purified (see FIG. 10B). The binding constants for the interactions were obtained by analysis of the initial dissociation phase to obtain the kd, which was then used to constrain a global analysis of the association region of the curves, using regions of the curves where a 1:1 Langmurian model appeared to be operative.
# VEGFR-3 [2] = biological target: T2, VEGFR-3 (Homo sapiens, UniProt P35916); test: Biosensor analysis (surface plasmon resonance) of VEGF-D ligands on VEGFR-3; format: binding
# T2 sequence (P35916 25-1363): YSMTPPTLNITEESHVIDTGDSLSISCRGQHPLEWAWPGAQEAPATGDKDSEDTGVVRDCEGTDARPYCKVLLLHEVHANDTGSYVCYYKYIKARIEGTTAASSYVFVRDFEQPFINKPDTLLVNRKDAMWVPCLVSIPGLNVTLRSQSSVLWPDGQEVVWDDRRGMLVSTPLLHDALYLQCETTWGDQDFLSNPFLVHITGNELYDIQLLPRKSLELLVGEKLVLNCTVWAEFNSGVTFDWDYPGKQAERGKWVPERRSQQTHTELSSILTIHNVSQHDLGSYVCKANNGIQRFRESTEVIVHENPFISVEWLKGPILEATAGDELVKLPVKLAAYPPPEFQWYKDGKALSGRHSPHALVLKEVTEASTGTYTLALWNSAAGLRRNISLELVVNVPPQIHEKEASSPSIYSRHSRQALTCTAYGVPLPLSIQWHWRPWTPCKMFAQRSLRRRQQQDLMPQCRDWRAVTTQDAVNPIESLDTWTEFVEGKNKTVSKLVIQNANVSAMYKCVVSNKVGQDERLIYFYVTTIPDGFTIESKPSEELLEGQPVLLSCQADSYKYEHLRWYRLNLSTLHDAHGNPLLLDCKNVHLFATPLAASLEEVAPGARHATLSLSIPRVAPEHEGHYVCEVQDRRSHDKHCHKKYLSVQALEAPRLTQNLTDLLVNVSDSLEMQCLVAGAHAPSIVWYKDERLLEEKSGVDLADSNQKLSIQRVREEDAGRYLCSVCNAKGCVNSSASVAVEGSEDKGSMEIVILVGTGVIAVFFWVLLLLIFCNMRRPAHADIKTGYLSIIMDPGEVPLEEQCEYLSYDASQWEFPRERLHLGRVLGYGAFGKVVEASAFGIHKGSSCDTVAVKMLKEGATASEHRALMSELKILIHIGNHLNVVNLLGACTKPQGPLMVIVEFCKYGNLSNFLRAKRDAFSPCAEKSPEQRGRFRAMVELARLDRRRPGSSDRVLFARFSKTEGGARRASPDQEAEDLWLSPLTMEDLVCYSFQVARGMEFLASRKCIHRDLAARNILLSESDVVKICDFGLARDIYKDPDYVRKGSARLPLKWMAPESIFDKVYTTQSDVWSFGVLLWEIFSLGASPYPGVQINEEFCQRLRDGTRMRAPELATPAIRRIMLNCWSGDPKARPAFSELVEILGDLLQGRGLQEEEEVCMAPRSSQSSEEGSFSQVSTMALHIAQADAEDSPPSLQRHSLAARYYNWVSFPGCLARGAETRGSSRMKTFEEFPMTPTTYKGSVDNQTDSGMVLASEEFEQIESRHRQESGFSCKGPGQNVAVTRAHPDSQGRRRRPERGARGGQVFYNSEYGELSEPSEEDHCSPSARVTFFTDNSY
# Method: as §1
# VEGFR-2 [3] = biological target: T1, VEGFR-2; details: full-length form that could be processed, cited from earlier work
# VEGFR-3 [4] = biological target: T2, VEGFR-3; details: cited from earlier work
# T1 sequence (P35968 20-1356): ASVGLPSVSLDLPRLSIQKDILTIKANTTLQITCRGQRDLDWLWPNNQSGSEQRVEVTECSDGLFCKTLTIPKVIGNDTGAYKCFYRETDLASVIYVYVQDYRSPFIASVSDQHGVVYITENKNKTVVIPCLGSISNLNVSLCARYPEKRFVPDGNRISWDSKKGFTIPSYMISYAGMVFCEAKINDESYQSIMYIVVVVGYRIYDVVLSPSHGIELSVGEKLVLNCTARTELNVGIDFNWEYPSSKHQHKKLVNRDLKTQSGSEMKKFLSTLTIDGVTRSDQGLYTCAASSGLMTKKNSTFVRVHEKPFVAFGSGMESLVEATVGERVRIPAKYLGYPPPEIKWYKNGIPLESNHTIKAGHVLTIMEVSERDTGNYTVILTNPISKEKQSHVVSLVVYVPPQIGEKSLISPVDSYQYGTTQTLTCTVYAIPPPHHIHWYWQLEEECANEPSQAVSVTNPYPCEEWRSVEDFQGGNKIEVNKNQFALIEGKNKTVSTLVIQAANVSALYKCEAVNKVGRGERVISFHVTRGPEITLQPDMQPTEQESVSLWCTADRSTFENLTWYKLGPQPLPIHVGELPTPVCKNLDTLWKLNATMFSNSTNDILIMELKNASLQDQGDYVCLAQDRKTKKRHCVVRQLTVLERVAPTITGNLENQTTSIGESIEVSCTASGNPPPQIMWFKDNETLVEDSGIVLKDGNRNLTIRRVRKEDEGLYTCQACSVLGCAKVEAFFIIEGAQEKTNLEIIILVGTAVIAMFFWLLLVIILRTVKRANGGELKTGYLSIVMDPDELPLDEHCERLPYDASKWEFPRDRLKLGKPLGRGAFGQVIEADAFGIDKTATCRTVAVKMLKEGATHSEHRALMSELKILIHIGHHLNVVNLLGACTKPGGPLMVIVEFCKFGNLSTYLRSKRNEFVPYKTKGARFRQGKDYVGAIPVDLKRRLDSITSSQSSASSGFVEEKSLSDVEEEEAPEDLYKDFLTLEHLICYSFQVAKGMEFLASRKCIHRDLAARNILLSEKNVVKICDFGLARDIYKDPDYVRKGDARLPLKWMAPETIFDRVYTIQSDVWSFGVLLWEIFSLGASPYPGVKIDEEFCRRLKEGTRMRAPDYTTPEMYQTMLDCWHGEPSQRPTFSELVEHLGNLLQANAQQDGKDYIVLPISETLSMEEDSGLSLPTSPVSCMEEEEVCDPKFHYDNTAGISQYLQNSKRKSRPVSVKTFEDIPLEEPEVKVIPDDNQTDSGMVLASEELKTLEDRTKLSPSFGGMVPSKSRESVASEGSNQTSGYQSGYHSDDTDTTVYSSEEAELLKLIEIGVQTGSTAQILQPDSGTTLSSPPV
molecule,measurement,setting,value
"mature VEGF-D: mature form of VEGF-D consisting of dimers of the VHD, lacking both propeptides (protein) FAATFYDIETLKVIDEEWQRTQCSPRETCVEVASELGKSTNTFFKPPCVNVFRCGGCCNEESLICMNTSTSYISKQLFEISVPLTSVPELVPVKVANHTGCKCLPTAPRHPYSIIRR",apparent affinity for VEGFR-2 relative to unprocessed mutant VEGF-DSSTS.IISS,VEGFR-2 [1],"~17,000 fold"
same,affinity for VEGFR-3 relative to VEGF-DSSTS.IISS,VEGFR-3 [2],~18 fold
same,"affinity for VEGFR-2 relative to full-length (unprocessed) VEGF-D, previously reported",VEGFR-2 [3],~290 fold
same,"affinity for VEGFR-2 relative to full-length (unprocessed) VEGF-D, previously reported",VEGFR-2 [3]; listed as mature form of VEGF-D,approximately 290 fold
same,"affinity for VEGFR-3 relative to unprocessed VEGF-D, previously reported",VEGFR-3 [4],~40 fold

# From patent US20070224194A1, “Methods for Inhibiting Angiogenesis and/or Lymphangiogenesis” (LUDWIG INSTITUTE FOR CANCER RESEARCH, priority 2004, published 2007)
